Measured values from FireProtDB (doi:10.1021/bi972394l).
Several values for one entry are separate records, joined by “and”; a condition that tells them apart may be missing. Identical values can stand only once.

Settings: Homo sapiens; pH 7.8; Thermal; DSC; potassium phosphate 2 mM; transition: 2; reversible: Yes; whole UniProt chain shown

B1: Superoxide dismutase [Mn], mitochondrial wild type, P04179 (protein)
chain: MLSRAVCGTSRQLAPVLGYLGSRQKHSLPDLPYDYGALEPHINAQIMQLHHSKHHAAYVNNLNVTEEKYQEALAKGDVTAQIALQPALKFNGGGHINHSIFWTNLSPNGGGEPKGELLEAIKRDFGSFDKFKEKLTAASVGVQGSGWGWLGFNKERGHLQIAACPNQDPLQGTTGLIPLLGIDVWEHAYYLQYKNVRPDYLKAIWNVINWENVTERYMACKK
With B1 the “unfolding enthalpy (calorimetric)” value was 142 kcal/mol and 90.6 kcal/mol.
